Reference: the DeepSol protein solubility set

Test: soluble on expression in E. coli; label from the status in PepcDB or PDB records

| Sequence | soluble on expression in E. coli |
| --- | --- |
| MASASNKQLELWKQYADTKNPAIKEQLIIEYSNIVKYIAGRLSIYFGSNVEYDDLIGYGIFGLIDAIEKFDINKGVKFETYASLRIRGSIIDSIRELDWVPRSLRQKNKELEKVYAEIENELGRSASDKEVADKLGITVDELNKLLNEVNLSSMISLEEFLEQNYEIGVTTAPESRDEKPEGYIEMAELREILADAISKLPEKEKMVITLYYFGEVVK | soluble |
| MVPAESNAVQAKLAKTLQRFENKIKAGDYYEAHQTLRTIANRYVRSKSYEHAIELISQGALSFLKAKQGGSGTDLIFYLLEVYDLAEVKVDDISVARLVRLIAELDPSEPNLKDVITGMNNWSIKFSEYKFGDPYLHNTIGSKLLEGDFVYEAERYFMLGTHDSMIKYVDLLWDWLCQVDDIEDSTVAEFFSRLVFNYLFISNISFAHESKDIFLERFIEKFHPKYEKIDKNGYEIVFFEDYSDLNFLQLLLITCQTKDKSYFLNLKNHYLDFSQAYKSELEFLGQEYFNIVAPKQTNFLQDMMSGFLGGSK | soluble |
| MRRNISIPASDSESALPGSPQGSDAHVSWWCGCGVIVGMSVSLLRGRTVRRALSVLVVAGLLGAGVTGCSNDAGAKTENTIDASPTPTNTTTDGDGDSTEEPVENTPAEPEQRPTPVEPEAMKTGDKAGAIAAAQFFVEVFDYDARTSSTTLMDKYAYKKCTLCNEMRSDKQRLIDEGEISFWAEYSEAEYINSTFVGDEEIIWEVDTETSYLEHVRSLTSNEITSTRTDLILTMQIGWLGDRWELVSLGYSKK | not soluble |
| MTLKNNILPLLMLSCCFVLAACSSSNSASASASNKNKNMEPNKGRYSLKNDKMPLNPPNVDHVPNATPKYEPYSRRGNKPYTVYGESYTVLNSGEGFSETGRASWYGEKFHGYETSNGEPYDMYGMSGAHKTLPLPSYARVTNLDNNKQVIIRINDRGPFHSERILDLSYAAAYKLGMLGTGTARIKLDVIYIGSKAATQSAIASVHSSGNHYIQLVASKDKQRLHKMAKDLEKKYQVKTRVQPANNMFRLQLGPIGQAELADRLLIKVKQDGYPAGYIVSEK | not soluble |
| MAFRMSRDHADFVAHGGTEWDDGAFVNVKKIKIFHDWAGITLVQFDYIDGTGAIVSGLDHGTEPFQFDREHGRVPVEGARAEFWLRDDEYITIVTAFGGYCVRKIEFITNKRTFDFGGFN | soluble |
| MEGNQAGSSLDSLIASFNKRIGELQELVIARNMYPASTIPDLSAIDTALSSMELQVQSIKDRLREETEAIPKAKKLIEASLKQQGKLQKMSIYAPSHFPDKATMLNSDLNRCLLQENAKQYEQHSTLSSLKFDEEAAVLPKEKKGRGSPPLWYITVEELNSLSSYMRGRLTLEKVNAAINDMASYAEANAHLIAASKQKLAENLWEKALKLRDIVTEQAVKGKHFFLETDMKGPSLKLDNTGKAILTVLRHLGRISETRIGQNRVIILMKPH | soluble |
| GPGSMPVANEASSFNVLYALNKCNPKRRRWMNGWLYVNFDRATLVDGISRKAVGVVSGTGLLPNKVFKMMVEADNGAAWEMGTEVVIGQYITQIEGTTRLHLIPYTLFSGVDCIDDNAAEEVSSVELAGSSMTSRVVNVTAGFSATRADAPLSRRKTTEQLISELRGAYPQIFI | not soluble |
| MQPTSITVASYNLRNANGGDSINGNGWGQRYPVIAQIVQYHDFDIFGTQECFIHQLKDMKEALPGYDYIGVGRDDGKEKGEHSAIFYRTDKFDVIEKGDFWLSETPDVPSKGWDAVLPRICSWGHFKCKDTGFEFLFFNLHMDHIGKKARVESAFLVQDKMKELGKGKELPAILTGDFNVDQTHQSYDAFVSKGVLCDSYEKAGFRYAINGTFNDFDPNSFTESRIDHIFVSPSFQVKRYGVLTDTYRSIVGKGEKKQANDCPEEIDIKTYQARTPSDHFPVKVELEFDQRQQKLEHHHHHH | soluble |
| MHIYRYEENPLITPEDVPPHHDGFEVIGAFNAGVARFQGEVLLLLRVAERPVSDDPNIVKAPVWNPKTGKVDVYEFRKDDPRYDFSDPRVIREAGAERFAYLTSLSYLRLARSQDGRRFVIDDRPFVYPSNELETFGIEDPRITYIDGTYYIYFSAVSPKGVGEAMVSTTDFRTVTHHGMIFAPENKDVLIFPEKINGKYYALHRPVPRSNGRPEVWIAESENLLHWGNHRFLFGLREGKWDSARIGGGAVPIKTEYGWLELYHGASDDHRYCMGAVLLDLNDPAKVIARSERPLVEPEADYEVNGFFGRVVFSCGALVDGDIVKMYYGAADTSMACVELKLDEILDSLVKV | soluble |
